The RNAGym collection of RNA variant scans (doi:10.7554/elife.80360)

B1: Twister Ribozyme (parent)
chain: AACACUGCCAAUGCCGGUCCCAAGCCCGGAUAAAAGUGGAGGGGGCGG

Variants of: B1
Experiment: self-cleavage, relative activity (ratio to wild type); higher = more cleavage; co-transcriptional
For G24U C25U, the self-cleavage was 0.0725.
With G24U C25A the self-cleavage was 0.115.
G24U C25G showed a self-cleavage of 0.104.
C25U C26U gave a self-cleavage of 0.132.
Variant C25U C26G has a self-cleavage of 0.131.
C27A A34U gave a self-cleavage of 0.145.
In the case of C26U A33C, the self-cleavage is reported as 0.203.
In the case of C26U A33U, the self-cleavage is reported as 0.266.
Variant C26U A33G has a self-cleavage of 0.17.
For C27U A30G, the self-cleavage was 0.777.
Work on C27U A30U yielded a self-cleavage of 0.758.
In the case of C26A G28A, the self-cleavage is reported as 0.168.
C27A G48A showed a self-cleavage of 0.275.
C27A G48U showed a self-cleavage of 0.397.
In the case of C27G G36C, the self-cleavage is reported as 0.0945.
With C25A C26G the self-cleavage was 0.0788.
With C26G A32C the self-cleavage was 0.141.
C26G A32G gave a self-cleavage of 0.316.
Variant G24U G41A has a self-cleavage of 0.0908.
Variant G24U G41C has a self-cleavage of 0.0917.
G24U G36C gave a self-cleavage of 0.0879.
In the case of G24U G36A, the self-cleavage is reported as 0.124.
Work on C27G A30U yielded a self-cleavage of 0.0941.
Work on C25U U37G yielded a self-cleavage of 0.332.
Work on C27G G42U yielded a self-cleavage of 0.0711.
For C27G A32U, the self-cleavage was 0.115.
With C27G A32C the self-cleavage was 0.137.
With G24C G47A the self-cleavage was 0.0965.
Work on G24C G47C yielded a self-cleavage of 0.0946.
With C25A U37G the self-cleavage was 0.0674.
C25A U37A gave a self-cleavage of 0.106.
C26U A34U gave a self-cleavage of 0.124.
For C26U A34C, the self-cleavage was 0.133.
Work on G24U G48A yielded a self-cleavage of 0.0944.
With G24U G48U the self-cleavage was 0.0921.
For C26G U31C, the self-cleavage was 0.165.
C26G U31A showed a self-cleavage of 0.427.
Variant G24U G28A has a self-cleavage of 0.0754.
In the case of G24U G28C, the self-cleavage is reported as 0.0992.
In the case of C26G C27U, the self-cleavage is reported as 0.0811.
In the case of C25G G36C, the self-cleavage is reported as 0.0714.
Work on C25G G36A yielded a self-cleavage of 0.103.
C27A G39C showed a self-cleavage of 0.0948.
Work on C26U G42U yielded a self-cleavage of 0.15.
With C26U G42C the self-cleavage was 0.15.
In the case of C26U G42A, the self-cleavage is reported as 0.13.
Variant C26G G43U has a self-cleavage of 0.138.
Work on C25G U37C yielded a self-cleavage of 0.102.
C25G C26G gave a self-cleavage of 0.0826.
C25G C26U showed a self-cleavage of 0.0513.
C27G U37A gave a self-cleavage of 0.106.
With C26A G38C the self-cleavage was 0.395.
C26A U37A showed a self-cleavage of 0.118.
For C26A U37G, the self-cleavage was 0.17.
Work on C26G A30U yielded a self-cleavage of 0.295.
Variant C26G A30C has a self-cleavage of 0.0641.
Variant C27U A33C has a self-cleavage of 0.764.
C26A G42U showed a self-cleavage of 0.109.
In the case of C26U A30U, the self-cleavage is reported as 0.556.
C26A A30G gave a self-cleavage of 0.348.
Work on C25G G44U yielded a self-cleavage of 0.197.
C25G G44C showed a self-cleavage of 0.248.
In the case of C25U A30C, the self-cleavage is reported as 0.53.
Variant C26U U31C has a self-cleavage of 0.495.
Variant C26U U31G has a self-cleavage of 0.503.
Work on C26G G41A yielded a self-cleavage of 0.128.
Variant C27A G42C has a self-cleavage of 0.139.
Work on C27A G42U yielded a self-cleavage of 0.113.
C26A G41C showed a self-cleavage of 0.124.
C26A G41U showed a self-cleavage of 0.154.
Work on C26A G41A yielded a self-cleavage of 0.101.
With G24U C46A the self-cleavage was 0.0884.
Work on G24U C46U yielded a self-cleavage of 0.0749.
Work on C26A C27A yielded a self-cleavage of 0.173.
For C27G G38A, the self-cleavage was 0.0803.
With C27G G38C the self-cleavage was 0.0767.
In the case of C27G G38U, the self-cleavage is reported as 0.093.
For C27U A32U, the self-cleavage was 0.842.
C27U A32C showed a self-cleavage of 0.755.
In the case of C26G G38A, the self-cleavage is reported as 0.0967.
C26G G38U showed a self-cleavage of 0.0977.
C25G G48A gave a self-cleavage of 0.193.
Work on C25G G48C yielded a self-cleavage of 0.167.
Work on C25G G48U yielded a self-cleavage of 0.21.
For C26G G44C, the self-cleavage was 0.149.
C26U U37A showed a self-cleavage of 0.121.
C27U A40C showed a self-cleavage of 0.159.
Variant C27U A40U has a self-cleavage of 0.164.
C27U A40G gave a self-cleavage of 0.119.
C27G G41A gave a self-cleavage of 0.0929.
C27G G41U gave a self-cleavage of 0.0753.
For C27G G41C, the self-cleavage was 0.0915.
With C25U G44A the self-cleavage was 0.811.
Variant C25U G44U has a self-cleavage of 0.809.
With C27A G43U the self-cleavage was 0.122.
C27G A33U showed a self-cleavage of 0.0804.
Variant C27G A33C has a self-cleavage of 0.0584.
Work on C25A G41C yielded a self-cleavage of 0.106.
Work on C25A G41A yielded a self-cleavage of 0.074.
Work on G24C U37A yielded a self-cleavage of 0.107.
C25U G28C showed a self-cleavage of 0.412.
Variant C25U G28U has a self-cleavage of 0.724.
G24C G43C gave a self-cleavage of 0.0497.
Variant G24C G43U has a self-cleavage of 0.0968.
C27G U31G showed a self-cleavage of 0.0669.
For C27G U31A, the self-cleavage was 0.099.
In the case of C27U G28A, the self-cleavage is reported as 0.478.
With C26A A33U the self-cleavage was 0.534.
C26A G47U showed a self-cleavage of 0.144.
C25A A30C showed a self-cleavage of 0.0625.
Variant C25A A30G has a self-cleavage of 0.233.
C25U G48U gave a self-cleavage of 0.813.
For G24U C26A, the self-cleavage was 0.0928.
For G24U C26G, the self-cleavage was 0.0895.
In the case of G24U C26U, the self-cleavage is reported as 0.122.
G24U G43C showed a self-cleavage of 0.076.
C26U G47U showed a self-cleavage of 0.15.
C26U G47C gave a self-cleavage of 0.181.
Variant C26U G47A has a self-cleavage of 0.149.
With C25A A40C the self-cleavage was 0.114.
With C25A A40G the self-cleavage was 0.0786.
C26U G29A gave a self-cleavage of 0.212.
Variant C25G A30U has a self-cleavage of 0.31.
For C25G A30G, the self-cleavage was 0.625.
C25A G47C showed a self-cleavage of 0.0869.
C25A G47U showed a self-cleavage of 0.0657.
C26G G29A gave a self-cleavage of 0.132.
Variant C26G G29U has a self-cleavage of 0.0569.
Work on C26G G29C yielded a self-cleavage of 0.134.
Variant C25G G28A has a self-cleavage of 0.346.
C25G G28U gave a self-cleavage of 0.259.
In the case of G24U A32U, the self-cleavage is reported as 0.0649.
G24U A32G showed a self-cleavage of 0.113.
Work on C25U U31A yielded a self-cleavage of 0.666.
C25U U31G gave a self-cleavage of 0.627.
C26G A34C showed a self-cleavage of 0.0761.
G24U A33C gave a self-cleavage of 0.142.
Variant G24U A33U has a self-cleavage of 0.121.
In the case of G24U A33G, the self-cleavage is reported as 0.104.
In the case of C25G C27G, the self-cleavage is reported as 0.0774.
C25G C27U showed a self-cleavage of 0.136.
Variant C26U G36C has a self-cleavage of 0.129.
Work on C26A G39C yielded a self-cleavage of 0.0938.
C26G C46G showed a self-cleavage of 0.218.
C26G C46A gave a self-cleavage of 0.153.
C25U G41U gave a self-cleavage of 0.198.
With C25U G41A the self-cleavage was 0.194.
Variant C27A G47C has a self-cleavage of 0.183.
With C27A U31A the self-cleavage was 0.676.
In the case of C27A U31G, the self-cleavage is reported as 0.629.
For C26G A40U, the self-cleavage was 0.12.
C26G A40C showed a self-cleavage of 0.113.
Variant C25A G48C has a self-cleavage of 0.137.
Work on C26A G36A yielded a self-cleavage of 0.0875.
With C26U G39U the self-cleavage was 0.102.
In the case of C26U G39C, the self-cleavage is reported as 0.0911.
C25A A34G gave a self-cleavage of 0.1.
C25A A34U gave a self-cleavage of 0.0738.
C26G G48U showed a self-cleavage of 0.146.
C26G G48C gave a self-cleavage of 0.229.
Variant C25G A35U has a self-cleavage of 0.299.
For C25U G38A, the self-cleavage was 0.581.
For C27G G29C, the self-cleavage was 0.0656.
Work on C27G G29A yielded a self-cleavage of 0.0827.
With C27G G44A the self-cleavage was 0.0871.
In the case of C26U G44C, the self-cleavage is reported as 0.172.
In the case of C25G U31G, the self-cleavage is reported as 0.393.
